In paper PMC12689640:

Columns and labels:
[1] = target: μOR W293^6.48A-RLuc8 (mouse) (UniProt P42866)
[2] = target: μOR N86^1.50A-RLuc8 (mouse) (UniProt P42866)
[3] = target: μOR S329^7.46A-RLuc8 (mouse) (UniProt P42866)
[4] = target: μOR Q124^2.60L-RLuc8 (mouse) (UniProt P42866)
[5] = target: μOR Y326^7.43F-RLuc8 (mouse) (UniProt P42866)

Gi heterotrimer of the dissociation assay (Gαi1-RLuc8, Gβ1, Venus-Gγ2) (from UniProt P63096 1-354; P62873 1-340; P59768 1-71) (complex)
efficacy of Gi activation against wild type (Gi dissociation BRET) [1]: 35 to 60%
efficacy of Gi activation against wild type (Gi dissociation BRET) [2]: 40 to 60%
decrease of Gi dissociation efficacy against wild type (BRET) [3]: 40%
efficacy of Gi dissociation against wild type (BRET), stimulated with DAMGO [4]: 60%
decrease of Gi dissociation efficacy against wild type (BRET) [5]: 30%
